Laboratory results published in PMC6888457, “PpAKR1A, a Novel Aldo-Keto Reductase from Physcomitrella Patens, Plays a Positive Role in Salt Stress” (International Journal of Molecular Sciences, 2019).

Legend:
[1] = molecular target: T1, PpAKR1A (Physcomitrium patens, UniProt A9RMV1); experiment: spectrophotometric NADPH oxidation at […] nm, Michaelis-Menten non-linear fit; assay type: biochemical; conditions: 150 µM NADPH, 50 mM Tris-HCl pH 7.0, 25 °C; apparent constant
T1 construct: gene LOC112295666; full coding region (from ATGGCGTTCGAAGTGCCT), expressed in E. coli BL21 from pMAL-c1 (BamHI/SalI); purified on Ni-NTA as 'His-fusion' (tag description inconsistent: MBP vector vs His)
T1 sequence (A9RMV1 1-354): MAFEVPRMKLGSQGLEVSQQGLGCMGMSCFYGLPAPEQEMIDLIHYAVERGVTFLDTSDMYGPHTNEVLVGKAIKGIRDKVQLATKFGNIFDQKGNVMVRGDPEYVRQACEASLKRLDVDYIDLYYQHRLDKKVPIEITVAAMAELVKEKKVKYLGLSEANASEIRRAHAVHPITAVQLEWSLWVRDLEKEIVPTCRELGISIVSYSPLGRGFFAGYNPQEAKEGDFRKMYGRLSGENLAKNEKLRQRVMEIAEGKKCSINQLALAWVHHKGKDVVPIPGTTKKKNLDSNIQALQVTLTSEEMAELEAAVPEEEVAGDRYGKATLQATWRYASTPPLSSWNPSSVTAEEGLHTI

[2] = substrate: CC(=O)C=O; experiment: purified protein; assay type: biochemical, Physcomitrium patens; conditions: 150 µM NADPH, 50 mM Tris-HCl pH 7.0, 25 °C, apparent constant
[3] = substrate: O=CC=O; experiment: purified protein; assay type: biochemical, Physcomitrium patens; conditions: 150 µM NADPH, 50 mM Tris-HCl pH 7.0, 25 °C, apparent constant

## C=CC=O [Acrolein]
[1]
  Km: 6.2 ± 1.11 mM

B1: PpAKR1A (Physcomitrium patens) (protein)
chain: T1 sequence (A9RMV1 1-354)
notes: full coding region (from …), expressed in E. coli BL21 from pMAL-c1 (BamHI/SalI); purified on Ni-NTA as 'His-fusion' (tag description inconsistent: MBP vector vs His)
[2]
  Km: 0.2262 ± 0.063 mM
  kcat: 0.86 ± 0.055 s⁻¹
  kcat/Km: 3810 M⁻¹ s⁻¹
[3]
  Km: 1.526 ± 0.237 mM
  kcat: 0.063 ± 0.041 s⁻¹
  kcat/Km: 63 M⁻¹ s⁻¹
